Here are results for two molecules from PMC4601640, “Stability of the Human Hsp90-p50^Cdc37 Chaperone Complex against Nucleotides and Hsp90 Inhibitors, and the Influence of Phosphorylation by Casein Kinase 2” (Molecules, 2015).

Assay [1] deals with the different Hsp90 proteins. Briefly: ITC; p50^Cdc37 (200 µM) titrated into Hsp90 (20 µM); 50 mM HEPES pH 7.5, 10 mM MgCl2, 30 °C.
The target in assay [2] is T1, human full-length p50^Cdc37 (residues 1-378) (human), Q16543.
T1 chain: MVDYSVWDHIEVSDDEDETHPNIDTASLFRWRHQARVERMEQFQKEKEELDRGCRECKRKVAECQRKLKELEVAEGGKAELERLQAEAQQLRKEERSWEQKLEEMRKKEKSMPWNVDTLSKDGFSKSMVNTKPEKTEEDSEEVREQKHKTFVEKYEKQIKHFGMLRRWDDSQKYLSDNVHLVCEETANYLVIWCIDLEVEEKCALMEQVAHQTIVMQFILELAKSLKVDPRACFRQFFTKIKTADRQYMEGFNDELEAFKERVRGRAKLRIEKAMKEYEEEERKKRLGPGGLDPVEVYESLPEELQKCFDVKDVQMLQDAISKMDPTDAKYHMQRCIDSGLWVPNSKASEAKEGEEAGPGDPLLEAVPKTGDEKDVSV
Briefly: SEC; analytical Superdex200 10/300 GL, room temperature, 0.3 mL/min; 85 µM protein in 50 mM HEPES pH 7.5, 50 mM KCl, 5 mM MgCl2, 1 mM DTT; fractions on SDS-PAGE. Conditions: remark: other sources report otherwise.

B1: human full-length p50^Cdc37 (residues 1-378) (natural protein)
chain: T1 chain
Regarding B1, in assay [1], the Kd lay in the range of 1.1 to 1.9 µM.

B2: human full-length p50^Cdc37 (residues 1-378), Q16543 1-378 (natural protein)
chain: T1 chain
In turn, B2 returned a stoichiometry N in assay [2] of 2.
